Reference: patent US7470669B2, “Isolated polypeptide comprising a leptin fragment” (Serono Genetics Institute, S.A., priority 1999, dated 2008)

Experiments:
Type in all cases: cell-based
[1] = target: T1, LSR α (Homo sapiens, UniProt Q86X29); experiment: 125I-leptin binding in CHO-K1 cells transiently transfected with LSR α; details: transient transfection with LSR α plasmid; 10 ng/mL 125I-leptin
T1 construct: The full-length LSR α, α′, and β clones were reconstructed in pTracer-CMV2 vector; expressed in transfected cells; host or cells: CHO-K1, transient (Fugene), pTracer-CMV2
T1 sequence (Q86X29 1-649): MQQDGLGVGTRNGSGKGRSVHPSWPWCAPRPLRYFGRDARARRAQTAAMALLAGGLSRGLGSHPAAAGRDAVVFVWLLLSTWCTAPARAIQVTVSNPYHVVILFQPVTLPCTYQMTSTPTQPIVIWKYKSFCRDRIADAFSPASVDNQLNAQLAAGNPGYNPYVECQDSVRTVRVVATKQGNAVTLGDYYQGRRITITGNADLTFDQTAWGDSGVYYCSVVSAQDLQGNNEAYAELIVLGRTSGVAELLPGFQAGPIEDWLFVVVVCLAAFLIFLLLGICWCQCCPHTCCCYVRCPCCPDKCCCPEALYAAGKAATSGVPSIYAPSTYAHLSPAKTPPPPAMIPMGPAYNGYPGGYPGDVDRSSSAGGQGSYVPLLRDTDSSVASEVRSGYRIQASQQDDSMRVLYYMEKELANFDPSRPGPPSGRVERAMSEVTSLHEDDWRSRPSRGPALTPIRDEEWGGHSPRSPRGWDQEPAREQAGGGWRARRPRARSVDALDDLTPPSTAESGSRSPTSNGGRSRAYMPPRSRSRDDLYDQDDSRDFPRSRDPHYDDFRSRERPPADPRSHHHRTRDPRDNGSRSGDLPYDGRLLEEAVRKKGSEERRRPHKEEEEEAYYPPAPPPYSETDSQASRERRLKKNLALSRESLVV
Description: (§1) FIGS. 3A, 3B, 3C, and 3D show the effect of LSR subunit transfection on leptin binding and degradation in CHO-K1 cells. For FIG. 3A, CHO-K1 cells were transfected with increasing concentrations of the α, (□), α′ (▪) or β (◯) LSR plasmid, or vector alone (●) using Fugene transfection reagent. After 48 h, the cells were washed once in PBS and incubated at 37° C. for 2 h with 10 ng/mL of ^125I-leptin in DMEM containing 0.2% (w/v) BSA, 2 mM CaCl2 and 5 mM HEPES, pH 7.4 (Buffer A). The monolayers were washed and lysed with 0.1 N NaOH containing 0.24 mM EDTA, and the lysates were counted. The results are shown as the amount of cell-associated ^125I-leptin. For FIG. 3B, lysates were prepared from CHO-K1 wild type, stable transfectants of vector or LSR α′ subunit, and PLC, and separated on a 10% SDS-polyacrylamide gel under denaturing and reduced conditions. After transfer to nitrocellulose, Western blots were performed using anti-LSR 170 antibody (can also be done with the human equivalent, 93A). […] For FIGS. 3C and 3D, confluent monolayers of stable-transfected cell lines expressing LSR α′ subunit (▪) or vector alone (●) were washed once in PBS and incubated at 37° C. for 2 h with increasing concentrations of ^125I-leptin in Buffer A. The amount of cell-associated (FIG. 3C) and degraded (FIG. 3D) ^125I-leptin was then measured as described herein. […]

[2] = target: T2, LSR β (Homo sapiens, UniProt Q86X29); experiment: 125I-leptin binding in CHO-K1 cells transiently transfected with LSR β; details: transient transfection with LSR β plasmid; 10 ng/mL 125I-leptin
T2 construct: The full-length LSR α, α′, and β clones were reconstructed in pTracer-CMV2 vector; expressed in transfected cells; host or cells: CHO-K1, transient (Fugene), pTracer-CMV2
T2 sequence (Q86X29 1-581 isoform Q86X29-5): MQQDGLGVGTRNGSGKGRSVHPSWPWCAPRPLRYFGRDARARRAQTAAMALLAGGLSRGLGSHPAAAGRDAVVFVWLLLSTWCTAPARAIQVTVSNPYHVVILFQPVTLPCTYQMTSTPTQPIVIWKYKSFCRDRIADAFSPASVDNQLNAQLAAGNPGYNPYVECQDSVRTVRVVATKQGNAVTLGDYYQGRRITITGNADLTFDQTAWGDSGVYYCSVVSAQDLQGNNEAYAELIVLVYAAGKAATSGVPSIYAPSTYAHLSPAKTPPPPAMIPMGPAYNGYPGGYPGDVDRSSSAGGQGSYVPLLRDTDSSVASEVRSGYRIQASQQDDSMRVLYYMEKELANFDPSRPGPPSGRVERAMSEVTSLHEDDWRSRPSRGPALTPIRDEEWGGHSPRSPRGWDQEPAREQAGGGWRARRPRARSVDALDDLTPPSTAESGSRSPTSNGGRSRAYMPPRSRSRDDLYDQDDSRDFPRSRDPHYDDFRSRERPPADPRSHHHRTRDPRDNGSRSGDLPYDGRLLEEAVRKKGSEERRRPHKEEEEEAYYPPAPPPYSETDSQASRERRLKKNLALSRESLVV
Description: as §1

[3] = target: LRP (Homo sapiens, UniProt Q07954); experiment: Degradation of activated α2-macroglobulin (LRP ligand); details: leptin up to 2 μg/mL
LRP, sequence (Q07954 20-4544): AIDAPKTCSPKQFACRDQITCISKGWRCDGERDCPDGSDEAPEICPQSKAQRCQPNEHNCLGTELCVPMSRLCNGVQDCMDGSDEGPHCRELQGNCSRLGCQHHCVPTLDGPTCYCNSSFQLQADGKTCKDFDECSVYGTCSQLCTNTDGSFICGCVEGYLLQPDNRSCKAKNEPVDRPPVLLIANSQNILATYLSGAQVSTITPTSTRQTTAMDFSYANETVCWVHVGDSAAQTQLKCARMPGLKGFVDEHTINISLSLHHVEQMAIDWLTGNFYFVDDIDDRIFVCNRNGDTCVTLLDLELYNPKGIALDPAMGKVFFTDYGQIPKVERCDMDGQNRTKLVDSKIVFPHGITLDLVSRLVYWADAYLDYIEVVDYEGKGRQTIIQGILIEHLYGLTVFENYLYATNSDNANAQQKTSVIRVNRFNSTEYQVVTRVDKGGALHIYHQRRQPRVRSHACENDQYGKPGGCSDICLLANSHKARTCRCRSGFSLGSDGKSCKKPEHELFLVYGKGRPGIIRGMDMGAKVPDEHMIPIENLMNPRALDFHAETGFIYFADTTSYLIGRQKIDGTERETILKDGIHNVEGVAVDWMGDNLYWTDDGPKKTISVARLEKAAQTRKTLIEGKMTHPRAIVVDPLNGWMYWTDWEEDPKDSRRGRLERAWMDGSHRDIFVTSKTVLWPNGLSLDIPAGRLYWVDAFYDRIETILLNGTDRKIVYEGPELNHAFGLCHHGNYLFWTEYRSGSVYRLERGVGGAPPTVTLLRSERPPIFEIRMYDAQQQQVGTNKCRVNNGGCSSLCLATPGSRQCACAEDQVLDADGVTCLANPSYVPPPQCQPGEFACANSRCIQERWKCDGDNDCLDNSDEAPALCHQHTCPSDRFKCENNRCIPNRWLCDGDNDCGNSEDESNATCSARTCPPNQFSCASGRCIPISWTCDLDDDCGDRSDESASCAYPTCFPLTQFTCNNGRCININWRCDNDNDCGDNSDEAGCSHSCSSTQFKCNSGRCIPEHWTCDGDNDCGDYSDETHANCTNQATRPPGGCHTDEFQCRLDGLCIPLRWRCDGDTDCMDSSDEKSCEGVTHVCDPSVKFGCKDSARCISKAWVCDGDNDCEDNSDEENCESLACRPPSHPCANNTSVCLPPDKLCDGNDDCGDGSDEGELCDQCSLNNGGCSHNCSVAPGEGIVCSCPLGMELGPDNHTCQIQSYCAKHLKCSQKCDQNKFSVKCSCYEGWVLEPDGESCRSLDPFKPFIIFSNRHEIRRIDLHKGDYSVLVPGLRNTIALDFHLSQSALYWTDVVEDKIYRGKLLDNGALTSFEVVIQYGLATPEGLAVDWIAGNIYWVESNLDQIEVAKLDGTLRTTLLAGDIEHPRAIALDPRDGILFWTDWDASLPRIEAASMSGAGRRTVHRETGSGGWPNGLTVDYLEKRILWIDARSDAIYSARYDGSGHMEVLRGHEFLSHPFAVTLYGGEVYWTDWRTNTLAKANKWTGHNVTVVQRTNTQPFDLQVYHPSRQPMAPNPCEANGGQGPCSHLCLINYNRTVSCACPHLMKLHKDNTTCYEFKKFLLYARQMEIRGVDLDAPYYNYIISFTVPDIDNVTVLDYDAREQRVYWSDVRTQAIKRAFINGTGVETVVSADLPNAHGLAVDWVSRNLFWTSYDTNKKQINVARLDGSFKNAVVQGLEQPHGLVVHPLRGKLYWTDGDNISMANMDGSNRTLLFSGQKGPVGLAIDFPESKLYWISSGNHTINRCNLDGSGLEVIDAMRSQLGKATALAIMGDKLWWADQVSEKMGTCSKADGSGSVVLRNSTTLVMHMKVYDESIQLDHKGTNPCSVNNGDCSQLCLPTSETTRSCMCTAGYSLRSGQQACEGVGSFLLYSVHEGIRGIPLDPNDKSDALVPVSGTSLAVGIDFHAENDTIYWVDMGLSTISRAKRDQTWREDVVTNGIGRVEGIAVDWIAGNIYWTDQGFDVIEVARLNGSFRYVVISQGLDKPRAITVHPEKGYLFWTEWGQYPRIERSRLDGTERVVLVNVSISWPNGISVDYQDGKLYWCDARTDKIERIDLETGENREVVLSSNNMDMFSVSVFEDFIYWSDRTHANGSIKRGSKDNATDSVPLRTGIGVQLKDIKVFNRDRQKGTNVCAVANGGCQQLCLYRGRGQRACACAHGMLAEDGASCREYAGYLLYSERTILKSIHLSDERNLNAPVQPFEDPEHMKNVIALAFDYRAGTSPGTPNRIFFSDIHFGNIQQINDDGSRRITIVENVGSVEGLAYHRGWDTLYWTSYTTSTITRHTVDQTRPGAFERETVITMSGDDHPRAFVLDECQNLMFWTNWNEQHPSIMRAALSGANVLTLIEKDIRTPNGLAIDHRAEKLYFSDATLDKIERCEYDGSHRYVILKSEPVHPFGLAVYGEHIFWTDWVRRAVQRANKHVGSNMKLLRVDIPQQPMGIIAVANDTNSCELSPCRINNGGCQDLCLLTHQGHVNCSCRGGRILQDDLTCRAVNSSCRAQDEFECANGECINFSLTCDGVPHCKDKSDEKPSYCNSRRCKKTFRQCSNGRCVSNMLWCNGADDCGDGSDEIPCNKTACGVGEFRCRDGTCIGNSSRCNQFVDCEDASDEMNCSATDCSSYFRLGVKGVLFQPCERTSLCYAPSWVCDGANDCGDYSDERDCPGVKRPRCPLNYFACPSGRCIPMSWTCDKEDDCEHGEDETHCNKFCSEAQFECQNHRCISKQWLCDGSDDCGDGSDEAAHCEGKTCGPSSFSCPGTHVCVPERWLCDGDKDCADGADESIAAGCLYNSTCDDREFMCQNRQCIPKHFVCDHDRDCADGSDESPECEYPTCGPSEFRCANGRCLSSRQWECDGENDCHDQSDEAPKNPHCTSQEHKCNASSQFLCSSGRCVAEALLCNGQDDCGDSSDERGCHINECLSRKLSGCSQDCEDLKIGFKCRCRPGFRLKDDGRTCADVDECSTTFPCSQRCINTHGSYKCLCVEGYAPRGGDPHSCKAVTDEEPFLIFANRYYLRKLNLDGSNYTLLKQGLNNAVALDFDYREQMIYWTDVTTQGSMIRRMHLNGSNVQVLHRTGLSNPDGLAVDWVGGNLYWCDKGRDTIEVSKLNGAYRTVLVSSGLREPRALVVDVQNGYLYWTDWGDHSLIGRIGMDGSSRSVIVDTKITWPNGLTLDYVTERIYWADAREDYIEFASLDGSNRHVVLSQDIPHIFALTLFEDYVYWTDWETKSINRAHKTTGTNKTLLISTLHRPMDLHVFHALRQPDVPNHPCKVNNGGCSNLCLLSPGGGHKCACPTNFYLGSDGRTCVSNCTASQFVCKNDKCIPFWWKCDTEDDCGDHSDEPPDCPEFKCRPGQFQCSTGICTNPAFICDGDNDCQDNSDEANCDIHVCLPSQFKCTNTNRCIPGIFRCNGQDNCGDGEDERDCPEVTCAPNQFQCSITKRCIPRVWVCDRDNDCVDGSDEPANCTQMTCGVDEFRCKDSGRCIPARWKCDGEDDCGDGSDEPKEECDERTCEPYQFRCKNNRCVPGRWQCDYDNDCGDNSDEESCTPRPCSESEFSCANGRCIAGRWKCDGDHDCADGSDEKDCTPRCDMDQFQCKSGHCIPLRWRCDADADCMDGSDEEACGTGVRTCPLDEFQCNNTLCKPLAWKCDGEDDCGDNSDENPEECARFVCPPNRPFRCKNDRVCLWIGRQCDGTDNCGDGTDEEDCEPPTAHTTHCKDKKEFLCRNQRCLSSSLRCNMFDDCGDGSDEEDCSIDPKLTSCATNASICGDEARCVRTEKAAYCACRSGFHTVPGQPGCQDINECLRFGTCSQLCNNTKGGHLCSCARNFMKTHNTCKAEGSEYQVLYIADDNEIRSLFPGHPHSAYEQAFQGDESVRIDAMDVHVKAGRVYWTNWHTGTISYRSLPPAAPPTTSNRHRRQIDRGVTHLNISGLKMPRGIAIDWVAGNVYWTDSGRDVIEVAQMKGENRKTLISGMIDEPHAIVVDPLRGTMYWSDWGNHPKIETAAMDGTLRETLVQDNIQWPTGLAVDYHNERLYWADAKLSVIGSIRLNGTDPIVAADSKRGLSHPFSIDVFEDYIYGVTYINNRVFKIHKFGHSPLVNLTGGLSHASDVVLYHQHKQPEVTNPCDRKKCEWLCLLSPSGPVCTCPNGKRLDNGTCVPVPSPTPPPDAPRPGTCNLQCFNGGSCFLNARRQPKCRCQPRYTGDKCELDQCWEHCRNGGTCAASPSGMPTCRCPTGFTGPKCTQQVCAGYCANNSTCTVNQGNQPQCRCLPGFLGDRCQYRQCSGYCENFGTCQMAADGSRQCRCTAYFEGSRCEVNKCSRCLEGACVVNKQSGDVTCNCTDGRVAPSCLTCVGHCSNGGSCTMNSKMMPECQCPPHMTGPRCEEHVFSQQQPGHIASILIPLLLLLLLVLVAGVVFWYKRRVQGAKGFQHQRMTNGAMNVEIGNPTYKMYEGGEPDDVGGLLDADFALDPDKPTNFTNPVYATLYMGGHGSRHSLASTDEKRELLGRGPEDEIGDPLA

degradation of activated α2-macroglobulin, the preferred LRP ligand [3]: no detectable effect
Substance: leptin: plasma protein of 16 kDa produced by adipocytes; recombinant human or mouse leptin, species depends on the experiment
Leptin binding to CHO-K1 cells [1]: remained at levels similar to those seen with the vector alone | Leptin binding to CHO-K1 cells [2]: remained at levels similar to those seen with the vector alone
